Holding throughout (experiment): cell-based or functional assay
Experiment [1] concerns the target T1, folate receptor 1 (FOLR1) (human, UniProt P15328 25-234).
For experiment [2], the target named is T1, folate receptor 1 (FOLR1). This is another data set of the same source.
Experiment [3] deals with T1, folate receptor 1 (FOLR1). This is another data set of the same source.
A further experiment has as its target EGFR (UniProt P00533 25-1210, limits assumed).

T1 sequence (P15328 25-234): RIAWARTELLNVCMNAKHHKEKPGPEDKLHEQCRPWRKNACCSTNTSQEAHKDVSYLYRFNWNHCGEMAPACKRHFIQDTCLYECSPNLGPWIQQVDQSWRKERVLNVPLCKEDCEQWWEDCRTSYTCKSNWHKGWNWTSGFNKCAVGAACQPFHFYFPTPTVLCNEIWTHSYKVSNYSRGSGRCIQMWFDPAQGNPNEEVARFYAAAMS

B1: huMOV19-14 conjugate (antibody, human IgG1, kappa, V domains shown)
VH: QVQLVQSGAEVVKPGASVKISCKASGYTFTGYFMNWVKQSPGQSLEWIGRIHPYDGDTFYNQKFQGKATLTVDKSSNTAHMELLSLTSEDFAVYYCTRYDGSRAMDYWGQGTTVTVSS
VL: DIVLTQSPLSLAVSLGQPAIISCKASQSVSFAGTSLMHWYHQKPGQQPRLLIYRASNLEAGVPDRFSGSGSKTDFTLTISPVEAEDAATYYCQQSREYPYTFGGGTKLEIKR
modifications: drug attachment sites not stated (see heavy chain); compound 14 (indolinobenzodiazepine dimer, Gly-Gly-Gly linker, NHS ester) conjugated to the antibody, average 3.0 per antibody; residues not stated
On to B1, for which the “IC50, in vitro cytotoxicity (WST-8) against KB cells” value in experiment [1] was 0.004 nM.

B2: huMOV19-90 conjugate (antibody, human IgG1, kappa, V domains shown)
VH: QVQLVQSGAEVVKPGASVKISCKASGYTFTGYFMNWVKQSPGQSLEWIGRIHPYDGDTFYNQKFQGKATLTVDKSSNTAHMELLSLTSEDFAVYYCTRYDGSRAMDYWGQGTTVTVSS
VL: DIVLTQSPLSLAVSLGQPAIISCKASQSVSFAGTSLMHWYHQKPGQQPRLLIYRASNLEAGVPDRFSGSGSKTDFTLTISPVEAEDAATYYCQQSREYPYTFGGGTKLEIKR
modifications: drug attachment sites not stated (see heavy chain); compound 90 (indolinobenzodiazepine dimer, L-Ala-L-Ala linker, NHS ester) conjugated to the antibody, average 2.7 per antibody; residues not stated
With B2, in experiment [2], the “IC50, in vitro cytotoxicity (WST-8), KB cells, -Block” value worked out at 0.004 nM; the “IC50, in vitro cytotoxicity (WST-8), NCI-H2110 cells, -Block” value was found to be 0.02 nM; the “IC50, in vitro cytotoxicity, KB cells, +Block (1 µM blocking anti-FOLR1 antibody huMOV19)” value stood at 0.8 nM; the “IC50, in vitro cytotoxicity, NCI-H2110 cells, +Block (1 µM blocking anti-FOLR1 antibody huMOV19)” value is 10 nM. For the same molecule, in experiment [3], the “IC50, in vitro cytotoxicity (WST-8), Ishikawa cells, conjugate” value came to 0.05 nM; the “IC50, in vitro cytotoxicity (WST-8), KB cells, conjugate” value was determined as 0.005 nM; the “IC50, in vitro cytotoxicity (WST-8), NCI-H2110 cells, conjugate” value stood at 0.1 nM; the “IC50, in vitro cytotoxicity, Ishikawa cells, conjugate + unmodified antibody (1 µM huMOV19)” value was 1 nM. In addition, in experiment [3], the “IC50, in vitro cytotoxicity, KB cells, conjugate + unmodified antibody (1 µM huMOV19)” value worked out at 1 nM and the “IC50, in vitro cytotoxicity, NCI-H2110 cells, conjugate + unmodified antibody (1 µM huMOV19)” value was 4 nM.

B3: huMOV19-sulfo-SPDB-107 conjugate (antibody, human IgG1, kappa, V domains shown)
VH: QVQLVQSGAEVVKPGASVKISCKASGYTFTGYFMNWVKQSPGQSLEWIGRIHPYDGDTFYNQKFQGKATLTVDKSSNTAHMELLSLTSEDFAVYYCTRYDGSRAMDYWGQGTTVTVSS
VL: DIVLTQSPLSLAVSLGQPAIISCKASQSVSFAGTSLMHWYHQKPGQQPRLLIYRASNLEAGVPDRFSGSGSKTDFTLTISPVEAEDAATYYCQQSREYPYTFGGGTKLEIKR
modifications: drug attachment sites not stated (see heavy chain); compound 107 linked through sulfo-SPDB linker to the antibody, average 2.7 per antibody; residues not stated
Take B3: in experiment [3], the “IC50, in vitro cytotoxicity (WST-8), Ishikawa cells, conjugate” value stood at 0.05 nM; the “IC50, in vitro cytotoxicity (WST-8), KB cells, conjugate” value was 0.005 nM; the “IC50, in vitro cytotoxicity (WST-8), NCI-H2110 cells, conjugate” value turned out to be 0.1 nM; the “IC50, in vitro cytotoxicity, Ishikawa cells, conjugate + unmodified antibody (1 µM huMOV19)” value came out at 2 nM. Moreover, in experiment [3], the “IC50, in vitro cytotoxicity, KB cells, conjugate + unmodified antibody (1 µM huMOV19)” value was 0.8 nM and the “IC50, in vitro cytotoxicity, NCI-H2110 cells, conjugate + unmodified antibody (1 µM huMOV19)” value came to 7 nM.

B4: huML66-90 conjugate (antibody, human IgG1, kappa, V domains shown)
VH: QVQLQESGPGLVKPSETLSLTCTVSGLSLASNSVSWIRQPPGKGLEWMGVIWNHGGTDYNPSIKSRLSISRDTSKSQVFLKMNSLTAADTAMYFCVRKGGIYFDYWGQGVLVTVSS
VL: DTVLTQSPSLAVSPGERATISCRASESVSTLMHWYQQKPGQQPKLLIYLASHRESGVPARFSGSGSGTDFTLTIDPMEAEDTATYYCQQSRNDPWTFGQGTKLELKR
modifications: drug attachment sites not stated (see heavy chain); compound 90 conjugated to the antibody, average 2.7 per antibody; residues not stated
Consider B4, for which, in the experiment with EGFR, the “EC50, in vitro cytotoxicity (WST-8), Detroit-562 cells” value was 0.016 nM; the “EC50, in vitro cytotoxicity (WST-8), NCI-H292 cells” value turned out to be 0.012 nM; the “EC50, in vitro cytotoxicity (WST-8), NCI-H1703 cells” value turned out to be 0.02 nM; the “EC50, in vitro cytotoxicity, Detroit-562 cells, +block (excess unconjugated huML66 antibody)” value came to 2.35 nM. In addition, in the experiment with EGFR, the “EC50, in vitro cytotoxicity, NCI-H292 cells, +block (excess unconjugated huML66 antibody)” value worked out at 1.57 nM and the “EC50, in vitro cytotoxicity, NCI-H1703 cells, +block (excess unconjugated huML66 antibody)” value turned out to be 2.14 nM.

The values above are taken from patent US20190269786A1 (published 2019).
